Measured values as given in patent publication US20260083826A1, “NEW SYNTHETIC DRUGS FOR TREATING ALZHEIMER'S DISEASE” (OKINAWA INSTITUTE OF SCIENCE AND TECHNOLOGY SCHOOL …, priority 2022, published 2026).

How the values were obtained:
[1] = biological target: Taxol-stabilized microtubules; assay: MT spin-down (co-sedimentation) assay with PHDP5 (1 mM) added as competitor to MT and dynamin 1
[2] = biological target: microtubules in mouse calyceal terminals (endogenous, assembled after h-tau loading), Q9ERD7
Chain of microtubules in mouse calyceal terminals (endogenous, assembled after h-tau loading), Q9ERD7 (Q9ERD7 whole entry, looked up): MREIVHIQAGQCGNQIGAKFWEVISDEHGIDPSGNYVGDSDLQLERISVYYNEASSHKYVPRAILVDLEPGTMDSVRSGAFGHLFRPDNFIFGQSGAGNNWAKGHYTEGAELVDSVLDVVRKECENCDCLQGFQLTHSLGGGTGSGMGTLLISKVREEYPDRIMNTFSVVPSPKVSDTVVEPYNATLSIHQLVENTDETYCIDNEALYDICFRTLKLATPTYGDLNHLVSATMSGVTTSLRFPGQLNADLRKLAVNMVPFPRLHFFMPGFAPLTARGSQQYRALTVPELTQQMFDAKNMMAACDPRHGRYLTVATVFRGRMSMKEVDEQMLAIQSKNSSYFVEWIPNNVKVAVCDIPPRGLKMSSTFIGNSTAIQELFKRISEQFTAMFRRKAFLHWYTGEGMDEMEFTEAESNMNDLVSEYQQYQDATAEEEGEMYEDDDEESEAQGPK

% of dynamin 1 in precipitates (ppts) relative to total amount [1] [%]	Molecule	dynamin immunofluorescence in permeabilised h-tau-loaded terminals against terminals without h-tau loading [2]
6.3	His-tagged human dynamin 1 (from UniProt Q05193 1-864)	–
–	dynamin 1 in mouse calyx of Held presynaptic terminals (endogenous) (protein) MGNRGMEDLIPLVNRLQDAFSAIGQNADLDLPQIAVVGGQSAGKSSVLENFVGRDFLPRGSGIVTRRPLVLQLVNSTTEYAEFLHCKGKKFTDFEEVRLEIEAETDRVTGTNKGISPVPINLRVYSPHVLNLTLVDLPGMTKVPVGDQPPDIEFQIRDMLMQFVTKENCLILAVSPANSDLANSDALKIAKEVDPQGQRTIGVITKLDLMDEGTDARDVLENKLLPLRRGYIGVVNRSQKDIDGKKDITAALAAERKFFLSHPSYRHLADRMGTPYLQKVLNQQLTNHIRDTLPGLRNKLQSQLLSIEKEVDEYKNFRPDDPARKTKALLQMVQQFAVDFEKRIEGSGDQIDTYELSGGARINRIFHERFPFELVKMEFDEKELRREISYAIKNIHGIRTGLFTPDLAFEATVKKQVQKLKEPSIKCVDMVVSELTSTIRKCSEKLQQYPRLREEMERIVTTHIREREGRTKEQVMLLIDIELAYMNTNHEDFIGFANAQQRSNQMNKKKTSGNQDEILVIRKGWLTINNIGIMKGGSKEYWFVLTAENLSWYKDDEEKEKKYMLSVDNLKLRDVEKGFMSSKHIFALFNTEQRNVYKDYRQLELACETQEEVDSWKASFLRAGVYPERVGDKEKASETEENGSDSFMHSMDPQLERQVETIRNLVDSYMAIVNKTVRDLMPKTIMHLMINNTKEFIFSELLANLYSCGDQNTLMEESAEQAQRRDEMLRMYHALKEALSIIGDINTTTVSTPMPPPVDDSWLQVQSVPAGRRSPTSSPTPQRRAPAVPPARPGSRGPAPGPPPAGSALGGAPPVPSRPGASPDPFGPPPQVPSRPNRAPPGVPRITISDP	a 2.6-fold increase in dynamin signal
